*1 amine or outer side, *2 acyl side, *3 side chain or, on linkers, in order; H or OH if unused. Where a SMILES comes first, the peptide text is derived from it. Bridges are numbered along the chain shown (N, C = ends). [ ]: non-standard residue; d: D form. The star is where a group is joined. X1 = N#C[C@@H]1CC(F)(F)CN1C(=O)CNC(=O)c1ccnc2ccc(OCCCN3CCN(*)CC3)cc12; DOTA = O=C(O)CN1CCN(CC(=O)O)CCN(CC(=O)*)CCN(CC(=O)O)CC1; 2Nal = N[C@@H](Cc1ccc2ccccc2c1)C(=O)O; Cit = NC(=O)NCCC[C@H](N)C(=O)O; Suc = O=C(CCC(=O)[*:2])[*:1]; AEEA = NCCOCCOCC(=O)O
Key:
[1] = Competitive experiment of radioligand against endogenous free amino acids (histidine, cysteine); format: physicochemical; settings: 37° C., 2 hours
Procedure: To an EP tube containing 150 μL of PBS buffer, 150 μL of H2O, and 50 μL of ^68Ga-SDYD01 was added 50 μL of cysteine hydrochloride solution (10 mM) or histidine solution (10 mM). The mixture was vortexed and incubated at 37° C. for 2 hours, after which samples were taken for radio-HPLC analysis.
This study utilized different concentrations of histidine and cysteine solutions to investigate whether histidine (or cysteine) competes with ^68Ga-SDYD01 for metal chelation.
To an EP tube containing 150 μL of PBS buffer, 150 μL of H2O, and 50 μL of ^68Ga-SDYD02 was added 50 μL of cysteine hydrochloride solution (10 mM) or histidine solution (10 mM). The mixture was vortexed and incubated at 37° C. for 2 hours, after which samples were taken for radio-HPLC analysis.
This study utilized different concentrations of histidine and cysteine solutions to investigate whether histidine (or cysteine) competes with ^68Ga-SDYD02 for metal chelation.
To an EP tube containing 150 μL of PBS buffer, 150 μL of H2O, and 50 μL of ^68Ga-SDYD05 was added 50 μL of cysteine hydrochloride solution (10 mM) or histidine solution (10 mM). The mixture was vortexed and incubated at 37° C. for 2 hours, after which samples were taken for radio-HPLC analysis. This study utilized different concentrations of histidine and cysteine solutions to investigate whether histidine (or cysteine) competes with ^68Ga-SDYD05 for metal chelation.
To an EP tube containing 150 μL of PBS buffer, 150 μL of H2O, and 50 μL of ^68Ga-SDYD06 was added 50 μL of cysteine hydrochloride solution (10 mM) or histidine solution (10 mM). The mixture was vortexed and incubated at 37° C. for 2 hours, after which samples were taken for radio-HPLC analysis. This study utilized different concentrations of histidine and cysteine solutions to investigate whether histidine (or cysteine) competes with ^68Ga-SDYD06 for metal chelation.

[2] = tested on: SUM149PT human breast cancer cell line; test: Cell uptake and inhibition assay, SUM149PT; format: cell-based
Procedure: The cell lines involved in the cell experiments in the test examples include: SUM149PT human breast cancer cell line, HUTU-80 human duodenal adenocarcinoma cell line, and U-118 MG human brain astrocytoma/glioblastoma cell line.
SUM149PT: Complete medium was formulated using DMEM high-glucose medium, 10% FBS, and a penicillin-streptomycin solution. The cells were cultured in a constant temperature incubator at 37° C. with 5% CO2. The culture medium was regularly replaced, and the cells were passaged. The culture medium was generally changed every 2 to 3 days. The growth of the tumor cells was observed daily under a microscope, including monitoring cell growth status, checking for adherence, examining cell morphology for any abnormalities, checking for contamination, and observing medium color for any abnormalities. Cells were passaged when they reached 80-90% confluence.
When cell confluence in the culture flask reached 80%, the cells were digested and centrifuged, and the supernatant was removed. An appropriate amount of medium was added to dilute so that each well contained 500 μL of medium for plating. After thorough mixing by pipetting, the cell suspension was seeded into a 24-well plate at a density of 5×10^5 cells per well. The plate was then placed into the incubator for continued growth. The cells were ready for cellular experiments when they reached 80% confluence.
(1) The cell uptake assay established four incubation time points: 15, 30, 60, and 120 minutes, respectively. For each time point, four groups were set up: non-inhibition group, a first single inhibition group (FAP single inhibition), a second single inhibition group (CXCR4/GRPR/αvβ3 single inhibition), and a dual inhibition group (FAP inhibitor+CXCR4/GRPR/αvβ3 inhibitor). Each group at each time point was set up with 3 triplicate wells.
(2) Cells were plated into a 24-well plate according to the cell plating procedure described above.
(3) The original culture medium was removed from the 24-well plate. Then, 400 μL of 100 mg/mL skimmed milk solution was added to each well for blocking for one hour. After removing the skimmed milk solution, each of the wells was washed three times by adding 400 μL of PBS solution. Subsequently, 146 μL of FBS-free medium was added to each well. Next, the non-inhibition group received 4 μL of cold PBS per well, while the first single inhibition group, the second single inhibition group, and the dual inhibition group received the following additions per well according to Table 3: 2 μL of non-radiolabeled first single inhibitor solution and 2 μL of cold PBS: 2 μL of non-radiolabeled second single inhibitor solution and 2 μL of cold PBS; 2 μL of non-radiolabeled first single inhibitor solution (10 mM) and 2 μL of non-radiolabeled second single inhibitor solution (10 mM). The plate was incubated at room temperature for one hour.
(4) The ^68Ga- and ^177Lu-labeled radioactive ligands were formulated by adding FBS-free medium to achieve a radioligand system concentration of 20 nM. Then, 50 μL of this radioligand system was added to each well. Each group was incubated according to the designated time points: 15, 30, 60, and 120 minutes.
(5) After the incubation was complete, the supernatant was removed, and the wells were washed three times with 400 μL of PBS solution. Then, 200 μL of 1 M NaOH solution was added to each well for cell lysis. […] Each well was then washed once with 400 μL of PBS solution, and this wash solution was also added to the corresponding radioimmunoassay tubes.
(6) The radioactivity in the cells was measured using a γ counter. A bar graph was plotted using GraphPad Prism software. The inhibition rate for each inhibition group was calculated as follows: Inhibition Rate (%)=(1−[Radioactive Count of the Inhibition Group]/[Radioactive Count of the Non-inhibition Group])×100%. […]

## N#C[C@@H]1CC(F)(F)CN1C(=O)CNC(=O)c1ccnc2ccc(OCCCN3CCN(C(=O)CCC(=O)N[C@@H](CCCCNC(=O)CN4CCN(CC(=O)O)CCN(CC(=O)O)CCN(CC(=O)O)CC4)C(=O)NCCOCCOCC(=O)NCCOCCOCC(=O)N[C@@H](CCCNC(=N)N)C(=O)N[C@@H](CCCNC(=N)N)C(=O)N[C@@H](Cc4ccc5ccccc5c4)C(=O)N[C@H]4CSSC[C@@H](C(=O)N[C@@H](CCCNC(=N)N)C(N)=O)NC(=O)[C@H](CCCNC(N)=O)NC(=O)[C@H](CCCNC(=N)N)NC(=O)[C@H](Cc5ccc(O)cc5)NC(=O)[C@@H]5CCCN5C(=O)[C@H](CCCCN)NC(=O)[C@H](CCCCN)NC(=O)[C@H](CCCNC(N)=O)NC(=O)[C@H](Cc5ccc(O)cc5)NC4=O)CC3)cc12 [^68Ga-SDYD01, metal not drawn] ({X1-Suc}-K(DOTA)[AEEA][AEEA]RR[2Nal]CY[Cit]KKPYR[Cit]CR-NH2; disulfide 7-16)
[1]
  competitive chelation in the presence of histidine and cysteine (in words): did not undergo competitive chelation
[1]; cysteine hydrochloride solution (10 mM)
  radiochemical purity after incubation with cysteine: 93%
[1]; histidine solution (10 mM)
  radiochemical purity after incubation with histidine: 93%
[2]; FAPI-04 and T140 as inhibitors
  cell uptake, comparison of non-inhibition, FAP single, CXCR4 single and dual inhibition groups (in words): dual inhibition group exhibited the lowest uptake
[2]; non-inhibition group, 15-120 minutes
  cell uptake over incubation time (in words): slowly increased and reached a plateau from 30 to 120 minutes

— patent US20260069728A1, “MULTI-TARGETING COMPOUND AND USE THEREOF” (Chengdu Shetai Medical Technology Co., Ltd., priority 2023, published 2026)
